# Source: patent US11781164B2, “Demethylation of reticuline and derivatives thereof with fungal cytochrome P450” (priority 2017, dated 2023)
# Tests used:
# oripavine = experiment: Bioconversion of oripavine (N-demethylation to nororipavine) by S. cerevisiae expressing cytochrome P450s and CPRs, LC-MS; conditions: for nororipavine production when oripavine was administered: co-expressed with CPR_DN5866_c0_g1_i1_Cd9, CPR_DN10898_c0_g1_i1_1A or Cel_CPR_co
# thebaine = experiment: Bioconversion of thebaine (N-demethylation to northebaine) by S. cerevisiae expressing cytochrome P450s and CPRs, LC-MS; conditions: for activity towards thebaine, converting it to northebaine: co-expressed with CPR_DN5866_c0_g1_i1_Cd9, CPR_DN10898_c0_g1_i1_1A or Cel_CPR_co (at least one of the tested CPRs)
molecule,measurement,setting,value
"LCOR_09548_co: codon-optimized putative cytochrome P450 A0A068S8J3 from Lichtheimia corymbifera (protein, listed as Lichtheimia corymbifera, codon-optimized) MSSLNILSLLDNKHINAFFDNPSRAQSGIIAGSVAIVSLCAAYSLGSRLRGSNNGVPLVPYTFPIIGSTKEYQADPQAFIEKWTAKLGPVFRVHLFGRIHTVVSDRYVREVFLNNDFDFLKGTGKRFDTLLLTDTTLEDVDIEVFRTVVMKHLTKEMKHYTPRVVEHLTAGGDEKLGDATEPKELVHLFPLLQHMVAKASASIFVGTELAADDAVVETCKNIAIDIGSELGPSSYIMDAFPSLARLRMWYIGKYGKAINKHRQHLLHALGPVIDKRLAAAEKGGDWDRPQDILQDIIETINLTLDNPKRHILPVKWLLALFFASIHTTSENSTIVLYRIMQNPEIIDVLLEEQNEILEKHYGTNIDYSDTTKLFTGEVIKEMVKLDSVCREAMRSRNSYLELPHTYVGKSRITLSCGAVIEPGHDVLINMWGNHRDAKIQRDTIGDHHDFKPFRFVGLDRQSTKIGDDFLMFGQGRHACPGRWFAIQEIKTIVSVLIRYYKLTPKGPITFPTHPRMPMPTGEVIIQRRQE",nororipavine production when oripavine was administered,"oripavine; 0.5 mM oripavine, pH 7, 72 h",capable of producing nororipavine
"LCOR_01865_co: codon-optimized putative cytochrome P450 A0A068RKI7 from Lichtheimia corymbifera (protein, listed as Lichtheimia corymbifera, codon-optimized) MTEIKDHIYRYRHYIGVAAAVLLVCQQVYHRIFRIPKNLRHLPAIPYGKQLKALQSQENLISRTQRLVFPLLPKAHGVYLNRMPFQWTIYVADPEIARIVFFKPEFANKTSSVLDSIDQNTTLIEFVGNDNVSIVNGHHWKDQRKIMNPAFHRATPVGMFGSLMPKVFRLVEEQPTVPVLELMQKLTLDALGKSVFGFDFGGLDDPDSVWVKTYRLLFDGFTNVIPLVFPRLDGLYRYFSAKRRAQHDAVYKLIDLLDGVADKKRSMLQDDSNSHNDVPEHEKDLLQLMLEAELRGEGNWTKKELRHNMAIFFVAGHDTTSHALTFCLYLLAMNQDIQKKAREEILRVLGDEPKDVFPTLEDCKKLDYLDMVIKESMRIYPPANDILARDVHEDLNVKGIFIPKGAMVSVDIQALHHRPDLWHEPEKFNPDRFLPGGEHDSHEGIAYAPFSSGARQCIALKFSIMQQRVVLAMLLRKFEWELPKESKHKDGIQFEIPFNLAPKDLELIFHKRY","activity towards thebaine, converting it to northebaine","thebaine; 0.5 mM thebaine, pH 7, 72 h",displayed activity towards thebaine
same,nororipavine production when oripavine was administered,"oripavine; 0.5 mM oripavine, pH 7, 72 h",capable of producing nororipavine
"P450_DN5615_c2 g1_i9_co: codon-optimized cytochrome P450 candidate from Cunninghamella echinulata (protein, listed as Cunninghamella echinulata, codon-optimized) MSQFISTISQYWDVNNFIDQQAWSRFYETYLLKYTDSKAKRLTIGVSVSLLLLGYGIKRLLTPPKHLRHIKHASFLRFTYNFVIKGVTPKEMHTTVSKKIVEENNGFYLQLERTGWVVYVANPEAVKQVLLKSDIFPKMDFSKLASEEGSYFEKFIGFKNILMTTGSEWLKHRKLTNPAFHRSLPAKLFGETAQGLFKIWDNEYNDKPFEVNIHNMNERITLDIIGKAGFAFDFNAVADEKSPWKKTYDIINTAASDPLFFMFPILENKLLWLFPKRQESFKKLDEWKAMLTSVIENKRRLLKDNIDQGVEEAEKDLLTLMIESEFRGEGVLTKEELIGNLTVFFLAGHDTTSFALTSAIYYMARYPEIQEKARQEVNSILCPNGEPNEGILPTIEDTKKLVYLNQIMKESMRIGNPVLFLLSPRQATKDFNLNGTFIPKGTQVNINIHDLHHSSNVWDDPDTFNPDRFAPGGEADKKTGIAWVPFSNGSRQCLGMNFSLLEQRVILSCLLRKYEWTLPENSIHKNDMISKFDLIPSPIDMKIRFERRY","demethylase activity towards thebaine (northebaine), C. echinulata P450 candidates","thebaine; 0.5 mM thebaine, pH 7, 72 h, co-expressed with Cel_CPR",displayed demethylase activity towards thebaine and oripavine
same,"demethylase activity towards oripavine (nororipavine), C. echinulata P450 candidates","oripavine; 0.5 mM oripavine, pH 7, 72 h, co-expressed with Cel_CPR",displayed demethylase activity towards thebaine and oripavine
"P450_DN15259_c0_g1_i7_A: native cytochrome P450 clone from Thamnostylum piriforme (plasmid pEV31541) (protein, Thamnostylum piriforme) MDNKAILRQAVYSYRYHIGIAAAVAIVCQQIYSRVFRVPKNLRHIPAISYWSQMKALLKKEAITPRTKRLVYPLLSKANGLYLNRMPFDWTVYVANPMIAKTVLFKPEFATKMSLIGSFSDDSAVLQFVGKDNIAVSNGHQWKKQRKIMNPAFHRSMPVALFASLMPKVFCMIDETQENGDSVGAIQLMQALTLEALGKAVFGFDFGGLDDKNSVWVKTYNEVFKAFTDFTVFLPRLNAFLRRVSPPHRSRHREMLKLIGLLDEMVDKKRQALLDAKNKSVEKVPEHEKDLLTLMLEAEMDGEGVWEKEELRHNIGILFVAGHDTTANSLAFAVYNLAVNKDVQDKARKEIIDLLGDEPKDVAPTLDDCKHMDYIDMIIKETLRMNAPANDLLARIASEDLELGGVLIPKGTMVSVDFHALHLHPDLWEDSERFNPQRFQDNGEHSKHEGVTWVPFSGGSRQCIGINFSMMEQRVALSTLLRKYEWELPADSIHRNGLVMDQPFSFAPSSLKIKFKKRY","thebaine N-demethylation (northebaine), screening of T. piriforme P450 candidates","thebaine; 0.1 mM thebaine, non-buffered SC-His-Leu-Ura, with CPRs from C. elegans, G. fujikuroi and S. cerevisiae, 72 h, 30° C.",identified as a thebaine N-demethylase
same,increase in northebaine titers on increasing thebaine concentration to 0.5 mM,"thebaine; 0.1 vs 0.5 mM thebaine, pH 7, 72 h, with Cel_CPR_co, CPR_DN5866_c0_g1_Cd9 or CPR_DN10898_c0_g1_1A",50%
same,oripavine N-demethylation (nororipavine),"oripavine; detected only when feeding 0.5 mM oripavine, pH 7, 72 h, with Cel_CPR_co, CPR_DN5866_c0_g1_Cd9 or CPR_DN10898_c0_g1_1A",able to N-demethylate oripavine
same,nororipavine titers lower than those of northebaine,"oripavine; thebaine or oripavine fed, pH 7, 72 h",20 fold
"CPR_DN10898_c0_g1_1A: native cytochrome P450 reductase clone from T. piriforme (pEV31730) (protein, Thamnostylum piriforme) MSKKPTTFAISPLDLLLLGTLGIGALLYITRKLRAAPPPAAGDAARPSDKAPSNKPERNFVKLMEQQKRRVIFFYGSQTGTAEDYASRLAKESSQKYGVSSMAADIELYDLSYLDTVPEDKLVVFVMATYGEGEPTDNAVDFWETLTDEAPMFSLGEELAPLRNLNYIVFGLGNKTYEHYNEVARVLDKRLAALGATRHGVRGEGDDDASLEEDFLAWQEDMWPAFCAALNVDESNAQAGPRQAMYGVKELEGHDENGLFLGELGEWLQPEQLQKQTAVHDAKHPYLAPIAASRDLFSHAADRHCLHLEVDIASSNLTYQTGDHIAIWPTNNDVEVLRLATVLGLADKLDTAIMVKALDSAASKKYPFPVPTTYRAAFKHYLDICSPASRQTLISLVDYAPTASSKDALHKLATDKDAYKTQVSEAARNLAEVLELCQDDEGTTAAPGFFSTVPFDLIVESVSRLQPRYYSISSSSLTSPKSVAVTAVTLSYQPSTTKSRTVYGVNTNYLWRIHAPHDASVPAYDLDGPRNTLQGKKVPVHIRRSTFKLPRNTKLPVIMVGPGTGVAPFRGFIHDRVHQKQSGKEVGPTVLFYGCRHSKQDFLYAEEWPALFEALGEGSQLITAFSRESAQKVYVQHRLKEHGEQMWKYIEQGAYIYVCGDAKNMARDVQQTFIEFAQALGNKTESQAQDYVKNLRNTGRYQEDVWS",support of N-demethylase activity of P450_DN15259_c0_g1_i7_A by CPR (northebaine),"thebaine; 0.1 mM thebaine, 0.1 M potassium phosphate buffer pH 7, 72 h, 30° C.",yielded more northebaine
"P450_DN12791_c0_g1_C: native cytochrome P450 clone from Thamnostylum piriforme (plasmid pEV31522) (protein, Thamnostylum piriforme) MAILQNLVLQSDQRHLGVVTAAVFLSAYALYRHESKKELGNECPTVPYTNPMFGSTDEYRKNPAAFVEKWSAALGPVFRVHIFGRMQTVVSGRYVREVLFNDNFSFVEGIRTRFDLRLLTGIPNSHLNDKDVREVVVKSLTAQMKKYTPRAVHYLSVGLQEALGDLKDPRTLDNLFLTVQNMVAKASASIFVGEELCNNIELVDTFKHVTSDIGSEIRLDNTWLEFFKTINQIRMWYVGKHSPRVTKHRRQLIQAMAPEIDRRLQGLAGNDPSWTRPEDILQEIMENYPSPSTVPADIYTYYANWMIVLIFASVHTTTEHATIVLYRLLQQPELIDELLQEQKEALGQGTVFTGEVIRKLVKLDSVCRESLRIKNEYFGLPHRNMSHENISLSNGVVIKPGDNVMLNVWTNHHDSDLQKDVHGNHDKFEPFRYVNADRPATKIGDDYLIFGEGKHACPGRWFALQEIKTIVSVLIRDYTLTPCGPIVFPSGTSTGIPSGEVTIQRKSEV",nororipavine titers,"oripavine; 0.5 mM oripavine, pH 7, co-expressed with Cel_CPR_co, 72 h",highest nororipavine titers
same,"oripavine N-demethylation (nororipavine), screening of T. piriforme P450 candidates","oripavine; 0.5 mM oripavine, pH 7, with CPRs from C. elegans, G. fujikuroi and S. cerevisiae, 72 h",identified as an oripavine N-demethylase
"Ar_ORZ22410_co: codon-optimized putative cytochrome P450 A0A1X2IUG5 from Absidia repens (protein, listed as Absidia repens) MNKLFPVGTSNKKKAVLLSLGATVALICRAIYRIYYVPRSLRHIPSVGYFRLIRSILRREDATTRARTVYGPAIKKGNGIYLANFPITWSVFVSSPIAAKSVLMKTDNFPKSMEIFHALGKENPVVRFFGIDNVAIVNGEKWKKQRKVMNPAFHRAMPVQMFGRLMLKGFKNIEKQDYQVPILDFFQRLTLDALGIAGFGFDFHSVDDPESIWTKTYENVRLGLRSPFSFLFPSMDWLLKYIIPGRKELDKSVDKLNALLMSMAQERRLQVRASIDDNVPDSEKDLLTLMLEAELRGEGTASDEQLRSNLAVFFLAGHETTANTMSFCLYNLAMNKEVQSKARQEVLTVLGDEPVDILPQIDELRQMPYIDMVLKENLRRFGPASMLIARKSQEDFDLNGVFIPKNTPVVVETHALHHNPDVWKNPEQFDPERFAPGGEHETCHEGMAWLPFSSGSRGCLGMNFSLAEQRTFLVMLLRKYEWELPEDSIHRNGVKIQNFQNAAPESLEIKFSSRY","activity towards thebaine, converting it to northebaine","thebaine; 0.5 mM thebaine, pH 7, 72 h",displayed activity towards thebaine
same,nororipavine production when oripavine was administered,"oripavine; 0.5 mM oripavine, pH 7, 72 h",capable of producing nororipavine
